pEC50: −log10 of the molar value.
Key:
[1] = target: human GITR, membrane bound (on activated human T cells and on 3A9-hGITR cells) (human) (UniProt Q9Y5U5); test: FACS on activated T cells, GMFI (PE); EC50 table under the plot; unit from the axis; fit of a flat control curve, see non_binding
[2] = target: human GITR, membrane bound (on activated human T cells and on 3A9-hGITR cells) (human) (UniProt Q9Y5U5); test: FACS competition on activated human CD4+ T cells: GITRL pre-bound and titrated, then 28F3.hIgG1 (m11) at a fixed 0.5 ug/mL, detected with anti-human IgG Fc-PE; partial block; unit from the axis
[3] = target: human GITR, membrane bound (on activated human T cells and on 3A9-hGITR cells) (human) (UniProt Q9Y5U5); test: FACS: recombinant hGITR-L trimer titrated on PHA-activated human T cells, CD8 gate, PE anti-HA tag; direct binding curve; the sheet's table heads the row 'IC50', the text calls it EC50; unit from the axis
[4] = target: human GITR, membrane bound (on activated human T cells and on 3A9-hGITR cells) (human) (UniProt Q9Y5U5); test: FACS competition on PHA-activated human T cells, GITR-L pre-bound, competitor 28F3-hIgG1 at 0.5 ug/ml; inhibition partial
[5] = target: human GITR, membrane bound (on activated human T cells and on 3A9-hGITR cells) (human) (UniProt Q9Y5U5); test: FACS, PHA-activated human CD4+ and CD8+ T cells, PE anti-HA tag
[6] = target: human GITR, membrane bound (on activated human T cells and on 3A9-hGITR cells) (human) (UniProt Q9Y5U5); test: FACS: recombinant hGITR-L trimer titrated on PHA-activated human T cells, CD4 gate, PE anti-HA tag; direct binding curve; the sheet's table heads the row 'IC50', the text calls it EC50; unit from the axis

human GITR, membrane bound (on activated human T cells and on 3A9-hGITR cells) (human), sequence (Q9Y5U5 26-241 limits assumed, form in doubt): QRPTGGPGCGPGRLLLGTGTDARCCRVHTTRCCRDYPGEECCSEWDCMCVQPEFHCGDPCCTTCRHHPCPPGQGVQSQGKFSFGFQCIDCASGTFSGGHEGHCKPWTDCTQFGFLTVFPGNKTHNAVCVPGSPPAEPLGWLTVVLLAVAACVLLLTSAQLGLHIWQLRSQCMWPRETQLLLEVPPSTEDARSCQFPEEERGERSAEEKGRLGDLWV

For unrelated hIgG2 (antibody), the pEC50 [1] was 8.17.

Work on unrelated hIgG1 (antibody) yielded a pEC50 [1] of 6.88.

Substance “recombinant human GITR ligand trimer (R&D Systems 6987-GL)” has an IC50 [2] of 0.00244 µg/mL, an EC50 [3] of 0.0163 µg/mL and an IC50 [4] of 0.0024 µg/mL. The EC50 [5] was 0.016 µg/mL and the EC50 [6] was 0.016 µg/mL.

Reference: patent publication US20170145104A1
